Substitutions are numbered along the chain they refer to.
Assays:
tvMyb1(35-141) = molecular target: T1, tvMyb1(35-141) (Trichomonas vaginalis, UniProt Q58HP2 35-141); assay: SPR
T1 sequence: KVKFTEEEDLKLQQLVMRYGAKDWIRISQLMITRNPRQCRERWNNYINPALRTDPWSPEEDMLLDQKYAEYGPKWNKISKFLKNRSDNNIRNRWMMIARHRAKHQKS

tvMyb1(35-141) T67A = molecular target: T2, tvMyb1(35-141) T67A (Trichomonas vaginalis, UniProt Q58HP2 35-141, T67A); assay: SPR
T2 sequence: T1 sequence with T33A

B1: MRE-1/MRE-2r 16-bp duplex, 5'-biotin (dsDNA)
DNA 1: AAGATAACGATATTTA
DNA 2: TAAATATCGTTATCTT
Question: Which results are given for B1?
Answer: Kd (tvMyb1(35-141)): 1.24 nM; binding result (tvMyb1(35-141) T67A): binds

Reference: article PMC2673439
